In US20090281023A9:

Key:
[1] = molecular target: PEG7-Octyl-Salmon Calcitonin, Diconjugate (salmon) (UniProt P01263)
[2] = molecular target: salmon calcitonin (salmon) (UniProt P01263)
[3] = molecular target: salmon calcitonin (salmon) (UniProt P01263); remark: listed apart in the source
[4] = molecular target: PEG7-Octyl-Salmon Calcitonin, Diconjugate (salmon) (UniProt P01263); remark: listed apart in the source

% Remaining Following 0.5 U/mL Chymotrypsin Digest (60 min, non-formulated) [1] [% remaining]	% Remaining Following 0.5 U/mL Chymotrypsin Digest (60 min, non-formulated) [2] [% remaining]	% Remaining following 1 U/mL Trypsin Digest (180 min, non-formulated) [3] [% remaining]	% Remaining following 1 U/mL Trypsin Digest (180 min, non-formulated) [4] [% remaining]	Substance
6	5	–	–	Chymotrypsin (enzyme)
–	–	31	61	Trypsin (enzyme)
